Experimental data from patent US20150105327.

Assays:
[1] = system: recombinant human histone H2A (wild type)
[2] = system: H2A with mutations of six other potential modification sites on the tail domains
[3] = system: tailless histone H2A (N- and C-terminal tails deleted)

Chain of recombinant His-VprBP wild type (chain, as listed by the source): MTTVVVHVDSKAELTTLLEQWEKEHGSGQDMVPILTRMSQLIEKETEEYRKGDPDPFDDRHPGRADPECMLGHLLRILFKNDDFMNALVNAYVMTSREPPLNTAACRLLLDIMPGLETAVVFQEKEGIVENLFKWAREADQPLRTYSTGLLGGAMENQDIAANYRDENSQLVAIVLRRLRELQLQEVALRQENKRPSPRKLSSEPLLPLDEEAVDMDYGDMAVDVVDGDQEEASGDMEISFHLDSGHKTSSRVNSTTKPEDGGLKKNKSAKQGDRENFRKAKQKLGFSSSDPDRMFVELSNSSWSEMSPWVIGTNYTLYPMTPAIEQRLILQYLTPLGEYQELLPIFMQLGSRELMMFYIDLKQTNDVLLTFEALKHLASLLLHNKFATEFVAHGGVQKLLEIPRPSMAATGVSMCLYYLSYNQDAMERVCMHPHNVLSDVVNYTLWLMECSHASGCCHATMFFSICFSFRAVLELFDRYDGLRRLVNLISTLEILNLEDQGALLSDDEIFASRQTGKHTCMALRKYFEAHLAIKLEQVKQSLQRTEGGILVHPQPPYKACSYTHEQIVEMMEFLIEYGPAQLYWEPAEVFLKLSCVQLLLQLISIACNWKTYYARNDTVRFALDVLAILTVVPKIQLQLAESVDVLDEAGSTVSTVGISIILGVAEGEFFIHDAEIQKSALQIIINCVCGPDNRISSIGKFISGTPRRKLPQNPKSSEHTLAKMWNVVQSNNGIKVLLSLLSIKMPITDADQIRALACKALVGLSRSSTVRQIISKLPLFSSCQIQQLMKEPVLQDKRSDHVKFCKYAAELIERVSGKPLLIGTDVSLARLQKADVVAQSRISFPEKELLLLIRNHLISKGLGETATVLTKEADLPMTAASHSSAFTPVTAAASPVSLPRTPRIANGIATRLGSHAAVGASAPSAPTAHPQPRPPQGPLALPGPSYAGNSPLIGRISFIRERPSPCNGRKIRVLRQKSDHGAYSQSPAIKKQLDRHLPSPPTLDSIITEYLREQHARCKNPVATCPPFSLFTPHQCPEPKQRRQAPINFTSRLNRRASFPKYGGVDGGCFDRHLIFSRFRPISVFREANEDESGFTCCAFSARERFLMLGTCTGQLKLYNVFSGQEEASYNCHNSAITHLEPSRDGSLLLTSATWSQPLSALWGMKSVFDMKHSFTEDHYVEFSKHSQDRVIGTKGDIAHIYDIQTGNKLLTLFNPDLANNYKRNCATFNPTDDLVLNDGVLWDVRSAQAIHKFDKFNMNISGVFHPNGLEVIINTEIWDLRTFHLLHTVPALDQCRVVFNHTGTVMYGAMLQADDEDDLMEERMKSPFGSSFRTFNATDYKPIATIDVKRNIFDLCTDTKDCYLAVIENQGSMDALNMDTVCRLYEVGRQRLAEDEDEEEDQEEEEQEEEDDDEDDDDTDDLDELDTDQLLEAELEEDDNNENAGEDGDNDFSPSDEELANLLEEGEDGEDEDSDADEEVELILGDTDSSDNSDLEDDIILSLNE
Chain of VprBP kinase-dead mutant K194R (chain, as listed by the source K194R): as the sequence (chain, as listed by the source) above, with K194R counted along it

Substance: VprBP kinase-dead mutant K194R
- H2A phosphorylation in nucleosomes, in vitro kinase assay, autoradiography [1]: mutation of this lysine residue completely abrogated kinase activity

Substance: recombinant His-VprBP wild type
- phosphorylation of free individual histones, in vitro kinase assay with [g-32P]-ATP, autoradiography (recombinant histone H3): a robust phosphorylation of H2A, but not other core histones
- H2A phosphorylation in nucleosomes, in vitro kinase assay, autoradiography [2]: mutations of six other potential modification sites on the tail domains had little effect
- phosphorylation of free individual histones, in vitro kinase assay with [g-32P]-ATP, autoradiography (recombinant histone H2B): a robust phosphorylation of H2A, but not other core histones
- phosphorylation of free individual histones, in vitro kinase assay with [g-32P]-ATP, autoradiography (recombinant histone H4): a robust phosphorylation of H2A, but not other core histones
- H2A phosphorylation in nucleosomes, in vitro kinase assay, autoradiography (histone H2A T120A mutant): VprBP-mediated phosphorylation is completely abolished by mutation of T120
- phosphorylation of H2A in reconstituted nucleosomes, in vitro kinase assay, autoradiography [1]: VprBP generated clear labeling of H2A in the nucleosome after autoradiography
- phosphorylation of free individual histones, in vitro kinase assay with [g-32P]-ATP, autoradiography [1]: Autoradiograph of the kinase reaction products showed a robust phosphorylation of H2A, but not other core histones
- H2A phosphorylation in nucleosomes, in vitro kinase assay, autoradiography [3]: simultaneous deletion of the N- and C-terminal tails of H2A blocks H2A phosphorylation by VprBP
